These are literature values, as cited in article PMC5337525.

For this series, the target named is calmodulin (UniProt P0DP23).

Regarding β-arrestin 1 (from UniProt P17870), the Kd was 7 µM.

As usually defined, the Kd is the free concentration of one partner at which half of the binding sites on the other are occupied at equilibrium, for simple one-to-one binding.
